The values below come from patent US20250368734A1 (ANTENGENE BIOLOGICS, published 2025).

Residue numbers refer to the chain shown, from its start.

T1: mouse GPRC5D (mouse, UniProt Q9JIL6 1-344)
T1 construct: whole, on cells; HEK293T-mGPRC5D cells; also called mGPRC5D; murine GPRC5D
T1 sequence (looked up): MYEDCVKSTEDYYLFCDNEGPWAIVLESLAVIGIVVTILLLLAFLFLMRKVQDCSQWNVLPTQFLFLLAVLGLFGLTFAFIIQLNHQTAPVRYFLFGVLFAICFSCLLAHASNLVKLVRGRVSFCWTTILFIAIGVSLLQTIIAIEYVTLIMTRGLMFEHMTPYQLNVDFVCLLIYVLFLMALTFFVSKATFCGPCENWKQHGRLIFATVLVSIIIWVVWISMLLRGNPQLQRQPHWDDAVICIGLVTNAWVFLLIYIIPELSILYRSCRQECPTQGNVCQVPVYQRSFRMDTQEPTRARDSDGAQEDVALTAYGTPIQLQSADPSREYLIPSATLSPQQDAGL

B1: ch101B3G3 (antibody, V domains shown)
VH: EVQLQQSGPELVKPGASMKISCKASGYSFTGYTMNWVKQSHGKNLEWIGLINPYNGGTRYNQKFKDKATLTVDKSSSTAYMELLSLTSEDSAVYYCARWLLRYAMDYWGQGTSVTVSS
VL: DIVMTQSQKFMSTSVGDRVSITCKASQNVGNAVAWYQQKPGHSPKLLISSASNRKNGVPDRFTGSGSGTDFTLTVSNMQSEDLADYFCQQYSDSSWTFGGGTKLEIK
B2: ch110B4H5 (antibody, V domains shown)
VH: EVQLQQSGPELVKPGASVKMSCKASGYTFTFYIMHWVKQKPGQGPEWIGYINPYNDGTKYNAKFKGKATLSSDRSSSTAYMELSSLTSEDSAVYYCARGGVRRYFDVWGAGTPVTVSS
VL: DIQMTQSPSSLSASLGERVSLTCRSSQDIGSNLNWLQQEPDGTIKRLIYATFSLDSGVPKRFSGSRSGSHYSLTISSLESEDFVVYYCLQYGSFPYTFGGGTKLEIK
B3: ch108C4C12 (antibody, V domains shown)
VH: EVQLQQSGPELVKPGASVKMSCKASGYTFTSYVIHWVKQKTGQGLEWIGYFNPYNDGTKYNEEFKGKATLTSDKSSNTAYMELNSLTSDDSAVYFCARGGVRRYFDVWGAGTTVTVSS
VL: B2 VL with S25A, S53G, H70D, V85D, L89Q, G92A
B4: 90G6H3 (antibody, V domains shown)
VH: QAYLQQSGAELVRSGASVKMSCKASGYTFTSYIMHWVKQTPGQGLEWIGYIYPGNGGTNYNQKFKDKATLSADTSSSTAYMQINSLTSEDSAVYFCARWGLRQGFAYWGQGTLVSVSA
VL: DIVMTQSQKFMSTSVGDRVSVTCKASQNVGGNVAWYQQKPGQSPKALIYSTSYRNSGVPDRFTGSGSGTDFTLTISNVQSEDLAEYFCQQYNSYPFTFGSGTKLEIR
notes: Mouse monoclonal antibody from hybridoma subclone
B5: 87A3G8 (antibody, V domains shown)
VH: QVQLKESGPGLVAPSQSLSITCTVSGFSLSSYSVYWVRQPPGKGLEWLGVIWAGGSTNYNSALMSRLSINKDKSKSQVFLKMNSLQTDDSAIYYCAMRWLPRGLDFWGQGTSVTVSS
VL: DIVMTQSHKFMSTSVGDRVSITCKASQDVGTAVAWYQQKPGQSPKLLIYWASTRHTGVPDRFTGSGSGTDFTLTISNVQSEDLADYFCQQYSTYYTFGGGTKLEIK
notes: as for B4
B6: 89F11E3 (antibody, V domains shown)
VH: QVQLQQSGAELARPGASVKMSCKASGYTFTSSTIHWVKQRPGQGLAWIGYIVPSTGYTNYNQKFKDKATLTADKSSSTAYMQLTSLTSEDSAVYYCARSDGYPFGYSMAYWGQGTSVTVSS
VL: DIQMNQSPSSLSASLGDTITITCHASQNINVWLSWYHQKPGNIPKLLIYKASNLHTGVPSRFSGSGSGTGFTLTISRLQPEDIATYYCQQGQSYPFTFGSGTKLEIK
notes: as for B4
B7: 101B3G3 (antibody, V domains shown)
VH: B1 VH
VL: B1 VL
notes: as for B4
B8: 82A1C10 (antibody, V domains shown)
VH: QVQLKESGPGLVAPSQSLSITCTVSGFSLTNYAVTWVRQPPGKGLEWLGVIWGDGSTYYHSALVSRLSITKDNSRTQVLLKLNSLQTDDTARYYCAKGGYSPFAYWGQGTLVTVSA
VL: DVVMTQTPLSLPVSLGDQASISCRSSQSLVHSNGNTYLHWYLQKPGQSPKLLIFKVSNRFSGVPDRFSGSGSGTDFTLKISRVEAEDLGVYFCSQNTHVPFTFGSGTKLEIK
notes: as for B4
B9: 96C9E7 (antibody, V domains shown)
VH: B3 VH with S31Y, V33I, I34L, T41P, T58N, Y60F, E63R, K65R, N77S, D89E
VL: B2 VL with S25A, Y49S, H70D, V85N, G92A
notes: as for B4
B10: 110B4H5 (antibody, V domains shown)
VH: B2 VH
VL: B2 VL
notes: as for B4
B11: 108C4C12 (antibody, V domains shown)
VH: B3 VH
VL: B2 VL with S25A, S53G, H70D, V85D, L89Q, G92A
notes: as for B4

The target in one test is T2, human GPRC5D (human, UniProt Q9NZD1 1-345).
T2 construct: whole, on cells; also called hGPRC5D; G-protein coupled receptor family C group 5 member D
T2 sequence (Q9NZD1 whole entry): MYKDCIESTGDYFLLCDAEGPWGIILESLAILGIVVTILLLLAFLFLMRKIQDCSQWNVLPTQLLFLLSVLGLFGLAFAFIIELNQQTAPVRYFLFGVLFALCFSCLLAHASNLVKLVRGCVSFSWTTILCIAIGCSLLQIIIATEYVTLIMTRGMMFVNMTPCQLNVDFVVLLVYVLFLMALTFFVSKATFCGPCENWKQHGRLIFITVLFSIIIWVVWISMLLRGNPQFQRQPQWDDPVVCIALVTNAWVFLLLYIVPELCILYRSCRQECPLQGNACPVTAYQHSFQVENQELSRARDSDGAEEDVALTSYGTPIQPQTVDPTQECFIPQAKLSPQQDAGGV
The test is described as follows: FACS, CHOS-hGPRC5D cells. In general terms: Flow cytometry measures light scatter and fluorescence of single cells or particles in a stream.
The EC50 is the concentration at which the effect is half-maximal. B1: the EC50 is 4.85 nM and the Top was 3940.

In the case of B2, the EC50 amounted to 2.74 nM and the Top was found to be 1820.

The molecule B3 displayed an EC50 of 0.463 nM and a Top of 2040.

Another test concerns the target T1, mouse GPRC5D. The test is described as follows: FACS, HEK293T-mGPRC5D cells.
In turn, B1 showed an EC50 of 38.6 nM and a Top of 57600.

On to B2, for which the EC50 came out at 14.2 nM and the Top worked out at 42900.

In the case of B3, the EC50 was determined as 109 nM and the Top came to 25500.

A further test addresses T2, human GPRC5D. In words: FACS, OPM-2 cells. From the text:
(§1) The subcloning plates were screened by Mirrorball assay and the subclones with good binding ability were expanded to 24-wells for confirmation tests. The specificity and cross-reactivity of these subclones were confirmed with FACS analysis. Briefly, parental HEK293T, HEK293T cells stably over-expressing human GPRC5D protein (i.e., HEK293T-hGPRC5D), HEK293T cells stably over-expressing cynomolgus monkey GPRC5D protein (i.e., HEK293T-cynoGPRC5D), HEK293T cells stably over-expressing mouse GPRC5D protein (i.e., HEK293T-mGPRC5D), and OPM2 cells were incubated with antibodies produced by each subclone, respectively. Fluorescent dye-conjugated secondary antibody was used to detect the binding of the primary antibody with the cells. Median fluorescence intensity (MFI) was measured by FACS analysis,
(§2) As a result, 21 antibodies were discovered with unique sequences showing positive binding with HEK293T-hGPRC5D and OPM2 cells. Among which, some clones could also bind with HEK293T-cynoGPRC5D and/or HEK293T-mGPRC5D. […] ATG596 was a positive human IgG1 control antibody which comprises a VH region having an amino acid sequence as set forth in SEQ ID NO: 199, and a VL region having an amino acid sequence as set forth in SEQ ID NO: 200.
Turning to B4, the “% Positive” value was determined as 97.3% and the MFI was 712.

As for B5, the “% Positive” value worked out at 92.7% and the MFI was 451.

Consider B6, for which the “% Positive” value came out at 98.1% and the MFI worked out at 999.

Consider B7, for which the “% Positive” value is 99.6% and the MFI was 1370.

As to B8, the “% Positive” value is 94.8% and the MFI is 550.

B9: the “% Positive” value amounted to 99.9% and the MFI was 1930.

In the case of B10, the “% Positive” value came out at 98.2% and the MFI is 894.

Turning to B11, the “% Positive” value was found to be 98.3% and the MFI came out at 878.

A further test concerns the target T3, cynomolgus monkey GPRC5D (cynomolgus monkey).
T3 construct: whole, on cells; HEK293T-cynoGPRC5D cells; also called cynoGPRC5D
In words: FACS, HEK293T-cynoGPRC5D cells.
B1: the response was half-maximal at 9.2 nM (EC50) and the Top is 68900.

Turning to B2, the EC50 came to 4.87 nM and the Top was determined as 27600.

Regarding B3, a half-maximal effect (EC50) was put at 3.87 nM and the Top turned out to be 39700.

Another test has as its target T2, human GPRC5D. The test is described as follows: FACS, HEK293T-hGPRC5D cells.
From the text: as §1, §2
B4: the “% Positive” value came out at 96.7% and the MFI turned out to be 4940.

Regarding B5, the “% Positive” value was found to be 88.6% and the MFI amounted to 7380.

Regarding B6, the “% Positive” value amounted to 96.7% and the MFI was 19200.

Consider B7, for which the “% Positive” value turned out to be 97.9% and the MFI was 27100.

Consider B8, for which the “% Positive” value amounted to 99.4% and the MFI was 8090.

Consider B9, for which the “% Positive” value was 58.8% and the MFI came out at 680.

For B10, the “% Positive” value was determined as 98.7% and the MFI was found to be 5250.

As for B11, the “% Positive” value came to 96.6% and the MFI came to 5010.

Another test deals with T1, mouse GPRC5D. In words: FACS, HEK293T-mGPRC5D cells. This is another data set of the same source.
From the text: as §1, §2
In the case of B4, the “% Positive” value stood at 87.4% and the MFI was 2230.

For B5, the “% Positive” value was 46.2% and the MFI turned out to be 178.

On to B6, for which the “% Positive” value stood at 74.6% and the MFI was found to be 1100.

Turning to B7, the “% Positive” value turned out to be 85.2% and the MFI was 1480.

As to B8, the “% Positive” value worked out at 4.5% and the MFI came out at 119.

On to B9, for which the “% Positive” value is 49.2% and the MFI is 202.

For B10, the “% Positive” value was found to be 78.9% and the MFI was found to be 772.

B11: the “% Positive” value turned out to be 65.7% and the MFI turned out to be 274.

The target in another test is T3, cynomolgus monkey GPRC5D. The test is described as follows: FACS, HEK293T-cynoGPRC5D cells. The source holds these as a separate data set.
From the text: as §1, §2
Consider B4, for which the “% Positive” value was 99.4% and the MFI was determined as 11400.

Regarding B5, the “% Positive” value was 76.7% and the MFI came out at 3960.

Regarding B6, the “% Positive” value turned out to be 98.8% and the MFI worked out at 16500.

Regarding B7, the “% Positive” value stood at 57.4% and the MFI came out at 585.

Regarding B8, the “% Positive” value worked out at 94.2% and the MFI was determined as 1070.

In the case of B9, the “% Positive” value worked out at 71.7% and the MFI was 4020.

On to B10, for which the “% Positive” value came to 96.7% and the MFI amounted to 2470.

Take B11: the “% Positive” value was found to be 59.1% and the MFI came out at 355.
